Data on three molecules can be found in PMC10621737.

The data set addresses T1, rMtbEspR (Mycobacterium tuberculosis H37Rv, UniProt P9WJB7 1-132).
T1 sequence: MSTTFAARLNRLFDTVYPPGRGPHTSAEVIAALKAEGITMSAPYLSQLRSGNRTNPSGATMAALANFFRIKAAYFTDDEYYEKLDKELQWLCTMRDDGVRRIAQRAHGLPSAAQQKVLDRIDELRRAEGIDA
In words: EMSA; poly(dI-dC) 50 ng/ml. Particulars: protein: recombinant; tags: N- and C-terminal 6xHis; chain copies: 2; label: 32P 5' end (T4 PNK); blunt. For orientation: A gel shift assay detects complexes by their altered migration in electrophoresis.

B1: IL-4 promoter full EMSA probe (FL) (dsDNA)
DNA 1: CTATGCAAAGCAAAAAGCCAGCAGCAGCCCCAAGCTGATAAGATTAATCTAAAGAGCAAATTATGGTG
DNA 2: CACCATAATTTGCTCTTTAGATTAATCTTATCAGCTTGGGGCTGCTGCTGGCTTTTTGCTTTGCATAG
B1: the binding result is “binds”.

B2: IFN-gamma promoter EMSA probe (dsDNA)
DNA 1: GAATTTCGTTTTTCACTTGTTCCCAACCACAAGCAAATGATCAATGT
DNA 2: ACATTGATCATTTGCTTGTGGTTGGGAACAAGTGAAAAACGAAATTC
As to B2, the binding result is “no binding”.

B3: HIV LTR EMSA probe (dsDNA)
DNA 1: CAGTTGAACCAGAGCAAGTAGAAGAGGCC
DNA 2: GGCCTCTTCTACTTGCTCTGGTTCAACTG
As for B3, the binding result is “no binding”.
